Assay results reported in the supplement of paper PMC10567573.

B1: ZNF277 (parent)
chain: ILREELQKQRLREILEQQQQERND

Variants of: B1
Test: protein stability index of a GFP-peptide fusion (GPS, HEK-293T) (PSI 1-6); higher = more stable
Settings: c terminus: a fixed tail appended
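Further: lentivirally expressed fusions sorted by FACS into six bins by GFP to DsRed ratio, PSI derived from sequencing read proportions per bin multiplied by bin number.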

For ILREELQKQRLREKLEQQQQERND, which protein stability index is on record?
Its protein stability index is 3.53.

Which protein stability index does the source give for ILREELQKQRLREGLEQQQQERND here?
The protein stability index was 4.74.

Which protein stability index does the source give for ILREELQKQRLRELLEQQQQERND here?
The protein stability index was 3.01.

For ILREELQKQRLREALEQQQQERND, which protein stability index is on record?
The protein stability index was 5.04.

With ILREELQKQRLRERLEQQQQERND as the variant, how does the protein stability index read?
Its protein stability index is 3.49.

For ILREELQKQRLREPLEQQQQERND, which protein stability index is on record?
Its protein stability index is 5.11.

For ILREELQKQRLREHLEQQQQERND, which protein stability index is on record?
Its protein stability index is 3.89.

For ILREELQKQRLRENLEQQQQERND, which protein stability index is on record?
Its protein stability index is 4.46.

For ILREELQKQRLRECLEQQQQERND, which protein stability index is on record?
Its protein stability index is 4.13.

Which protein stability index does the source give for ILREELQKQRLREDLEQQQQERND here?
Its protein stability index is 5.07.

Which protein stability index does the source give for ILREELQKQRLREMLEQQQQERND here?
The protein stability index was 4.3.

Which protein stability index does the source give for ILREELQKQRLREQLEQQQQERND here?
Its protein stability index is 4.81.

For ILREELQKQRLREELEQQQQERND, which protein stability index is on record?
Its protein stability index is 4.85.

Which protein stability index does the source give for ILREELQKQRLREFLEQQQQERND here?
The protein stability index was 3.5.

Which protein stability index does the source give for ILREECQKQRLREILEQQQQERND here?
Its protein stability index is 4.18.

With ILREEIQKQRLREILEQQQQERND as the variant, how does the protein stability index read?
The protein stability index was 4.56.

With ILREEPQKQRLREILEQQQQERND as the variant, how does the protein stability index read?
The protein stability index was 5.5.

With ILREEKQKQRLREILEQQQQERND as the variant, how does the protein stability index read?
The protein stability index was 4.96.

For ILREESQKQRLREILEQQQQERND, which protein stability index is on record?
The protein stability index was 4.44.

Which protein stability index does the source give for ILREEDQKQRLREILEQQQQERND here?
The protein stability index was 4.76.

With ILREEWQKQRLREILEQQQQERND as the variant, how does the protein stability index read?
Its protein stability index is 5.58.

For ILREETQKQRLREILEQQQQERND, which protein stability index is on record?
Its protein stability index is 4.75.

With ILREERQKQRLREILEQQQQERND as the variant, how does the protein stability index read?
The protein stability index was 4.88.

Which protein stability index does the source give for ILREEAQKQRLREILEQQQQERND here?
Its protein stability index is 4.4.

For ILREEVQKQRLREILEQQQQERND, which protein stability index is on record?
Its protein stability index is 4.65.

With ILREEHQKQRLREILEQQQQERND as the variant, how does the protein stability index read?
The protein stability index was 4.59.

For ILREENQKQRLREILEQQQQERND, which protein stability index is on record?
The protein stability index was 4.65.

Which protein stability index does the source give for ILREEFQKQRLREILEQQQQERND here?
Its protein stability index is 4.49.

Which protein stability index does the source give for ILREEGQKQRLREILEQQQQERND here?
The protein stability index was 4.9.

With ILREEQQKQRLREILEQQQQERND as the variant, how does the protein stability index read?
Its protein stability index is 3.69.

For ILREEYQKQRLREILEQQQQERND, which protein stability index is on record?
The protein stability index was 4.22.

Which protein stability index does the source give for ILREEEQKQRLREILEQQQQERND here?
The protein stability index was 5.19.

With ILREEMQKQRLREILEQQQQERND as the variant, how does the protein stability index read?
Its protein stability index is 3.89.

With ILREELQKIRLREILEQQQQERND as the variant, how does the protein stability index read?
The protein stability index was 4.18.

Which protein stability index does the source give for ILREELQKFRLREILEQQQQERND here?
Its protein stability index is 4.12.

For ILREELQKHRLREILEQQQQERND, which protein stability index is on record?
The protein stability index was 5.05.

Which protein stability index does the source give for ILREELQKYRLREILEQQQQERND here?
The protein stability index was 3.9.

Which protein stability index does the source give for ILREELQKLRLREILEQQQQERND here?
Its protein stability index is 4.41.

Which protein stability index does the source give for ILREELQKNRLREILEQQQQERND here?
The protein stability index was 3.79.

For ILREELQKCRLREILEQQQQERND, which protein stability index is on record?
The protein stability index was 4.41.

For ILREELQKMRLREILEQQQQERND, which protein stability index is on record?
Its protein stability index is 4.32.

With ILREELQKPRLREILEQQQQERND as the variant, how does the protein stability index read?
Its protein stability index is 4.52.

Which protein stability index does the source give for ILREELQKDRLREILEQQQQERND here?
The protein stability index was 4.98.

Which protein stability index does the source give for ILREELQKWRLREILEQQQQERND here?
The protein stability index was 3.53.

With ILREELQKVRLREILEQQQQERND as the variant, how does the protein stability index read?
Its protein stability index is 4.15.

For ILREELQKSRLREILEQQQQERND, which protein stability index is on record?
Its protein stability index is 4.41.

Which protein stability index does the source give for ILREELQKTRLREILEQQQQERND here?
Its protein stability index is 4.01.

With ILREELQKKRLREILEQQQQERND as the variant, how does the protein stability index read?
Its protein stability index is 4.42.

With ILREELQKERLREILEQQQQERND as the variant, how does the protein stability index read?
Its protein stability index is 3.04.

With ILREELQKGRLREILEQQQQERND as the variant, how does the protein stability index read?
The protein stability index was 4.05.

Which protein stability index does the source give for ILREELQKRRLREILEQQQQERND here?
The protein stability index was 4.41.

For ILREELQKQPLREILEQQQQERND, which protein stability index is on record?
Its protein stability index is 4.83.

For ILREELQKQTLREILEQQQQERND, which protein stability index is on record?
Its protein stability index is 4.59.

Which protein stability index does the source give for ILREELQKQILREILEQQQQERND here?
Its protein stability index is 3.41.

With ILREELQKQELREILEQQQQERND as the variant, how does the protein stability index read?
The protein stability index was 4.83.

For ILREELQKQGLREILEQQQQERND, which protein stability index is on record?
The protein stability index was 4.65.

For ILREELQKQKLREILEQQQQERND, which protein stability index is on record?
The protein stability index was 4.59.

For ILREELQKQDLREILEQQQQERND, which protein stability index is on record?
The protein stability index was 5.47.

With ILREELQKQCLREILEQQQQERND as the variant, how does the protein stability index read?
Its protein stability index is 3.28.

Which protein stability index does the source give for ILREELQKQWLREILEQQQQERND here?
Its protein stability index is 3.23.

Which protein stability index does the source give for ILREELQKQNLREILEQQQQERND here?
The protein stability index was 4.51.

Which protein stability index does the source give for ILREELQKQVLREILEQQQQERND here?
The protein stability index was 4.07.

With ILREELQKQALREILEQQQQERND as the variant, how does the protein stability index read?
Its protein stability index is 4.38.

With ILREELQKQFLREILEQQQQERND as the variant, how does the protein stability index read?
Its protein stability index is 3.47.

For ILREELQKQSLREILEQQQQERND, which protein stability index is on record?
Its protein stability index is 4.7.

Which protein stability index does the source give for ILREELQKQMLREILEQQQQERND here?
Its protein stability index is 3.58.

Which protein stability index does the source give for ILREELQKQHLREILEQQQQERND here?
The protein stability index was 4.85.

With ILREELQKQYLREILEQQQQERND as the variant, how does the protein stability index read?
The protein stability index was 4.3.

For ILREELQKQLLREILEQQQQERND, which protein stability index is on record?
Its protein stability index is 2.56.

Which protein stability index does the source give for ILREELQKQRFREILEQQQQERND here?
The protein stability index was 4.09.

With ILREELQKQRHREILEQQQQERND as the variant, how does the protein stability index read?
Its protein stability index is 4.94.

For ILREELQKQRGREILEQQQQERND, which protein stability index is on record?
Its protein stability index is 5.22.

Which protein stability index does the source give for ILREELQKQRAREILEQQQQERND here?
Its protein stability index is 4.83.

With ILREELQKQRTREILEQQQQERND as the variant, how does the protein stability index read?
The protein stability index was 4.66.

With ILREELQKQRNREILEQQQQERND as the variant, how does the protein stability index read?
Its protein stability index is 4.76.

For ILREELQKQRKREILEQQQQERND, which protein stability index is on record?
The protein stability index was 4.31.

With ILREELQKQREREILEQQQQERND as the variant, how does the protein stability index read?
Its protein stability index is 5.06.

Which protein stability index does the source give for ILREELQKQRMREILEQQQQERND here?
The protein stability index was 4.91.

Which protein stability index does the source give for ILREELQKQRRREILEQQQQERND here?
The protein stability index was 4.37.

For ILREELQKQRSREILEQQQQERND, which protein stability index is on record?
Its protein stability index is 4.68.

For ILREELQKQRDREILEQQQQERND, which protein stability index is on record?
Its protein stability index is 4.8.

For ILREELQKQRYREILEQQQQERND, which protein stability index is on record?
Its protein stability index is 4.58.

With ILREELQKQRIREILEQQQQERND as the variant, how does the protein stability index read?
The protein stability index was 4.52.

Which protein stability index does the source give for ILREELQKQRVREILEQQQQERND here?
Its protein stability index is 2.73.

Which protein stability index does the source give for ILREELQKQRWREILEQQQQERND here?
Its protein stability index is 3.94.

Which protein stability index does the source give for ILREELQKQRQREILEQQQQERND here?
The protein stability index was 5.05.

With ILREELQKQRCREILEQQQQERND as the variant, how does the protein stability index read?
Its protein stability index is 4.71.

For ILREELQKQRPREILEQQQQERND, which protein stability index is on record?
The protein stability index was 4.38.

For ILREELQKQRLAEILEQQQQERND, which protein stability index is on record?
The protein stability index was 4.73.

For ILREELQKQRLFEILEQQQQERND, which protein stability index is on record?
Its protein stability index is 4.23.

With ILREELQKQRLNEILEQQQQERND as the variant, how does the protein stability index read?
Its protein stability index is 4.86.

Which protein stability index does the source give for ILREELQKQRLLEILEQQQQERND here?
Its protein stability index is 4.36.

With ILREELQKQRLTEILEQQQQERND as the variant, how does the protein stability index read?
The protein stability index was 5.29.

For ILREELQKQRLQEILEQQQQERND, which protein stability index is on record?
Its protein stability index is 4.72.
